Measurements as given in PMC6935267 (Cell Reports, 2019).

Target: T1, MERS-CoV S1-NTD (residues 1-351) with 8xHis-tag and Twin-Strep-tag (MERS-CoV (deposit 6PXH of this paper))
T1 chain: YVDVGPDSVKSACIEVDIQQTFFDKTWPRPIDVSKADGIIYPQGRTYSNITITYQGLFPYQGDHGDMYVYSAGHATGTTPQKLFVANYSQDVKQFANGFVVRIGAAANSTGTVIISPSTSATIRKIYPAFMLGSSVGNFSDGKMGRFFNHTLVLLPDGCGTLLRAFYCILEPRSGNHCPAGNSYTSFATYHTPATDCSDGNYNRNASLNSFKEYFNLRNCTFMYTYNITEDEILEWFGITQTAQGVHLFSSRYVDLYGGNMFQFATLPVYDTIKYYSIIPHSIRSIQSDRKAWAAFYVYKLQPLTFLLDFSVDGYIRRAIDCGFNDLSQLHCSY
Experiment: SPR

B1: G2 Fab (Fab, V domains shown)
VH: QVQLQQSGGELVKPGASVKLSCKTSGFTFSSSYISWLKQKPGQSLEWIAWIYAGTGGTEYNQKFTGKAQVTVDTSSSTAYMQFSSLTTEDSAIYYCARGGSSFAMDYWGQGTSVTVSS
VL: not shown
Kd: 28 nM
